Source: patent publication US20260201064A1 (ISU ABXIS, published 2026)
Positions count from the first letter of the chain named.

T1: recombinant human ASM protein (human, UniProt P17405 47-630)
T1 construct: Recombinant human ASM in solution; also called acid sphingomyelinase (ASM) protein
T1 sequence: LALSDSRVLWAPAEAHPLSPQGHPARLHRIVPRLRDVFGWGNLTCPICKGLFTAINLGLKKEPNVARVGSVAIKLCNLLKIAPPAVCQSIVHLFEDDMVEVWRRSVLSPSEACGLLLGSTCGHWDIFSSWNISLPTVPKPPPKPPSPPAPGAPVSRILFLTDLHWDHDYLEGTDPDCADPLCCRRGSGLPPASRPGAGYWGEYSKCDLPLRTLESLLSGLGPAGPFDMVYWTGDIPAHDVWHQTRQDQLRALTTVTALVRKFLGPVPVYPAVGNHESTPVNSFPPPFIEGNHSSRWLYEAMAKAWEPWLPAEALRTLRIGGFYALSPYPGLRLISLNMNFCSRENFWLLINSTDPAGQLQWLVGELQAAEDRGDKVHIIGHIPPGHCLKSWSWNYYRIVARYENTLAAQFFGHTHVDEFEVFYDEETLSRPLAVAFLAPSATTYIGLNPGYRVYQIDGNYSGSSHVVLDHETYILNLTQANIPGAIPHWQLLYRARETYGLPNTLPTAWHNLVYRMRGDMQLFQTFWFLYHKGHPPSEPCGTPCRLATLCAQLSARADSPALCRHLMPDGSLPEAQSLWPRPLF

B1: #9104 (antibody, V domains shown)
VH: EVQLLESGGGLVQPGGSLRLSCAASGFTFSNYYMSWVRQAPGKGLEWVSGIYYGSGNIYYADSVKGRFTISRDNSKNTLYLQMNSLRAEDTAVYYCARDTPGFDYWGQGTLVTVSS
VL: QSVLTQPPSASGTPGQRVTISCTGSSSNIGNNAVNWYQQLPGTAPKLLIYYDSHRPSGVPDRFSGSKSGTSASLAISGLRSEDEADYYCGAWDYSLSAYVFGGGTKLTVLG
notes: Parental antibody; also called antibody #9104
B2: #9104v-H33 (antibody, human IgG4 S228P, lambda, V domains shown)
VH: B1 VH with I51V, G54P, I58P
VL: B1 VL
notes: Full-length IgG, lambda
B3: #9104v-H26 (antibody, human IgG4 S228P, lambda, V domains shown)
VH: B1 VH with I51T, G54A, I58A
VL: B1 VL
notes: Full-length IgG, lambda
B4: #9104v-H27 (antibody, human IgG4 S228P, lambda, V domains shown)
VH: B1 VH with I51T, G54D, N57Y, I58V
VL: B1 VL
notes: Full-length IgG, lambda
B5: #9104v-H30 (antibody, human IgG4 S228P, lambda, V domains shown)
VH: B1 VH with I51T, G54S, N57G
VL: B1 VL
notes: Full-length IgG, lambda
B6: #9104v-H25 (antibody, human IgG4 S228P, lambda, V domains shown)
VH: B1 VH with I51T, G54A, N57G
VL: B1 VL
notes: Full-length IgG, lambda
B7: #9104v-H31 (antibody, human IgG4 S228P, lambda, V domains shown)
VH: B1 VH with I51V, N57T, I58P
VL: B1 VL
notes: Full-length IgG, lambda

target: T1, recombinant human ASM protein; test: BLI (Octet), antibody on AHC sensor
Experimental: (§1) The binding affinity, to the ASM protein, of the produced antibodies specifically binding to the ASM protein and the interactive dynamics therebetween were measured using an Octet® QK384 system (Pall Life Sciences).
(§2) First, an antibody specifically binding to the ASM protein produced in Example 1 was captured using an anti-human IgG Fc capture (AHC) biosensor, and 1.25, 2.5, 5, 10, or 20 nM recombinant human ASM protein solution was added thereto. […] The association constant (Kₐ), dissociation constant (Kd), and equilibrium dissociation constant (KD) for each antibody were determined using Octet® analysis software (Pall Life® Sciences). As a result, the binding affinities, to the human ASM protein, of the antibodies with mutations in the heavy chain CDR regions of the antibody #9104 as depicted in Table 1 are shown in Table 5, and the binding affinities, to the human ASM protein, of the antibodies with mutations of the light chain CDR regions in the antibody #9104 as depicted in Table 2 are shown in Table 6.

Kd	koff	kon	Binder
2250 pM	0.000873 s⁻¹	389000 M⁻¹ s⁻¹	B1
517 pM	0.000108 s⁻¹	208000 M⁻¹ s⁻¹	B2
1740 pM	0.000305 s⁻¹	175000 M⁻¹ s⁻¹	B3
598 pM	0.000165 s⁻¹	276000 M⁻¹ s⁻¹	B4
762 pM	0.000151 s⁻¹	199000 M⁻¹ s⁻¹	B5
917 pM	0.00019 s⁻¹	207000 M⁻¹ s⁻¹	B6
532 pM	0.000141 s⁻¹	266000 M⁻¹ s⁻¹	B7

target: T1, recombinant human ASM protein; test: BLI (Octet), antibody on AHC sensor; remark: another data set of the same source
Experimental: as §1, §2
After the small-scale expression in the ExpiCHO cell line as described above, the binding affinity to the human ASM protein was investigated as described in Experimental Example 1. Specifically, the antibody produced by a combination of #9104v-H33 heavy chain variable region and #9104v-L23 light chain variable region was not expressed and thus excluded in the analysis of binding affinity to ASM protein.

Kd	koff	kon	Binder
2190 pM	0.000855 s⁻¹	391000 M⁻¹ s⁻¹	B1

target: T1, recombinant human ASM protein; test: BLI (Octet), antibody on AHC sensor; remark: another data set of the same source
Experimental: as §1, §2

Kd	koff	kon	Binder
2250 pM	0.000873 s⁻¹	389000 M⁻¹ s⁻¹	B1
